Test results from publication PMC10120478.
Numbering of substitutions follows the chain as printed.

Columns and labels:
[1] = target: T1, MgrA (Staphylococcus aureus XN108) (UniProt P0C1S0); assay: EMSA; conditions: EMSA: 20 mM Hepes pH 7.6, 1 mM EDTA, 10 mM (NH4)2SO4, 30 mM KCl, 1 mM DTT, 0.2% (w/v) Tween-20, 10 uL, room temperature 1 min; 4% native PAGE
T1 sequence: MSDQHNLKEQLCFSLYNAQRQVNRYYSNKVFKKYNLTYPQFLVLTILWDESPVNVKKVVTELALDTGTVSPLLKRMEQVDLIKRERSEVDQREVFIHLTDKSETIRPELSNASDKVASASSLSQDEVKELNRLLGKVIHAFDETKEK

[2] = target: T2, MgrA C12S C12S (Staphylococcus aureus XN108 mgrAC12S mutant) (UniProt P0C1S0); assay: EMSA; conditions: EMSA: 20 mM Hepes pH 7.6, 1 mM EDTA, 10 mM (NH4)2SO4, 30 mM KCl, 1 mM DTT, 0.2% (w/v) Tween-20, 10 uL, room temperature 1 min; 4% native PAGE
T2 sequence: T1 sequence with C12S

Row | Sequence | binding [1] | binding [2]
1 | GTTCGACATACCCAATGCCAAAAACATACCTATTGAAATTGACAAAATTCCAATACTAACTTTTCTAATTGAATAGCGTACTTTACTTTGTTGTTTATTCATGATGAAACACTCCTTACAATAATATACAAACATTATAACATAGTGCGCTATATATTTTAATTAAAATTTTCTTTGTTTTATAAAGCTATTGTAGGAGGTAAAATAATTAACTTGTCTTTCCAAAATATGAAAAGTGTACTAAAATTCATCGCACGACAAATAGCCCATTTCCGATACTT (double strand) [plytN (lytN promoter probe)] | binds | binds more weakly
2 | GTCACACTCCATGCCATTGAGTTGTAATATATCTTTTTTAGGTATAAATGTTGTCGAATAAACAACAAGTTGTCCAAAAGATATAAATCTAAACAAGATATAGCCAGCAATTTAATATTTGTAATAGATAAAATGCTAAGTTTGATATATAATAAATTTAAGTAATTGTATAATAATATGAATTACAAACATCTAAGAAGAAACATAGGAGGCATCA (double strand) [psarV (sarV promoter probe)] | binds | binds more weakly
